Where two headings read alike, the source gives them in different places.
Columns and labels:
CTCF ZF4-8 [1] = biological target: T1, CTCF ZF4-8 (human, UniProt P49711 348-492); assay: fluorescence polarization
T1 sequence: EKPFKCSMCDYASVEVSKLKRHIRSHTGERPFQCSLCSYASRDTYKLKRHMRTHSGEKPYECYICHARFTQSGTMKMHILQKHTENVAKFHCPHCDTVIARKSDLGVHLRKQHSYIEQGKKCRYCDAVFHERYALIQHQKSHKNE

CTCF ZF3-7 [2] = biological target: T2, CTCF ZF3-7 (human, UniProt P49711 321-465); assay: fluorescence polarization
T2 sequence: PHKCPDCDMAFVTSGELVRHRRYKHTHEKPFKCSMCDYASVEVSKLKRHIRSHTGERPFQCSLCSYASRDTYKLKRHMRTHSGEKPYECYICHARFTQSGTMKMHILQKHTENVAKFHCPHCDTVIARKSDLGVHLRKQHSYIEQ

CTCF ZF3-7 [3] = biological target: T2, CTCF ZF3-7; assay: fluorescence polarization; remark: listed apart in the source
CTCF ZF4-7 [4] = biological target: T3, CTCF ZF4-7 (human, UniProt P49711 349-465); assay: fluorescence polarization
T3 sequence: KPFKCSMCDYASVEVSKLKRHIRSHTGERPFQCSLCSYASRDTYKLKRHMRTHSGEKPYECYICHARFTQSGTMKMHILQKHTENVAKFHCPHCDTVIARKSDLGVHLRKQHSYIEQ

CTCF ZF4-7 [5] = biological target: T3, CTCF ZF4-7; assay: fluorescence polarization; remark: listed apart in the source
CTCF ZF3-7 [6] = biological target: T2, CTCF ZF3-7; assay: crystal structure
CTCF ZF4-8 [7] = biological target: T1, CTCF ZF4-8; assay: fluorescence polarization; remark: listed apart in the source
CTCF ZF4-7 [8] = biological target: T3, CTCF ZF4-7; assay: fluorescence polarization; remark: listed apart in the source
CTCF ZF4-7 [9] = biological target: T3, CTCF ZF4-7; assay: fluorescence polarization; remark: listed apart in the source
CTCF ZF4-7 [10] = biological target: T3, CTCF ZF4-7; assay: fluorescence polarization; remark: listed apart in the source

B1: CORE (dsDNA)
DNA 1: AGGACCAGCAGGGGGCGCA
DNA 2: TGCGCCCCCTGCTGGTCCT
- binding signal (CTCF ZF4-8 [1]): ~1 fold affinity vs ZF4-7 on CORE (similar)
- binding signal (CTCF ZF3-7 [2]): ~6 fold higher affinity than without ZF3
- binding signal (CTCF ZF3-7 [3]): ~4 fold higher affinity than without ZF3
- binding signal (CTCF ZF4-7 [4]): 1 fold (reference)

B2: H19 (dsDNA)
DNA 1: GTTGCCGCGTGGTGGCAG
DNA 2: CTGCCACCACGCGGCAAC
- binding signal (CTCF ZF4-7 [5]): ~6 fold lower affinity than CORE

B3: CORE crystal 17-mer (dsDNA)
DNA 1: GCCAGCAGGGGGCGCTA
DNA 2: TAGCGCCCCCTGCTGGC
- binding result (CTCF ZF3-7 [6]): binds

B4: control (dsDNA)
DNA 1: AATGGACGAGTCATAGGAGA
DNA 2: TTCTCCTATGACTCGTCCAT
- binding signal (CTCF ZF4-8 [7]): ~10 fold higher affinity than without ZF8 on control

B5: CORE 5mC2 (dsDNA)
DNA 1: AGGACCAGCAGGGGGCGCA
DNA 2: TGCGCCCCCTGCTGGTCCT
modifications: 5mC at nt 6 of top strand (motif position 2)
- binding signal (CTCF ZF4-7 [8]): ~23 fold lower affinity than CORE

B6: CORE 5mC12 (dsDNA)
DNA 1: AGGACCAGCAGGGGGCGCA
DNA 2: TGCGCCCCCTGCTGGTCCT
modifications: 5mC at nt 16 of top strand (motif position 12)
- binding signal (CTCF ZF4-7 [9]): 1.5 fold higher affinity than CORE

B7: CORE A3G (dsDNA)
DNA 1: AGGACCGGCAGGGGGCGCA
DNA 2: TGCGCCCCCTGCCGGTCCT
- binding signal (CTCF ZF4-7 [10]): ~1 fold affinity vs CORE (indistinguishable)

— paper PMC5542067
